Assays:
PobR = biological target: T1, PobR (Streptomyces coelicolor, UniProt Q9Z4X2); assay: ITC and crystal structure at […] Å; type: binding
T1 sequence (Q9Z4X2 1-524): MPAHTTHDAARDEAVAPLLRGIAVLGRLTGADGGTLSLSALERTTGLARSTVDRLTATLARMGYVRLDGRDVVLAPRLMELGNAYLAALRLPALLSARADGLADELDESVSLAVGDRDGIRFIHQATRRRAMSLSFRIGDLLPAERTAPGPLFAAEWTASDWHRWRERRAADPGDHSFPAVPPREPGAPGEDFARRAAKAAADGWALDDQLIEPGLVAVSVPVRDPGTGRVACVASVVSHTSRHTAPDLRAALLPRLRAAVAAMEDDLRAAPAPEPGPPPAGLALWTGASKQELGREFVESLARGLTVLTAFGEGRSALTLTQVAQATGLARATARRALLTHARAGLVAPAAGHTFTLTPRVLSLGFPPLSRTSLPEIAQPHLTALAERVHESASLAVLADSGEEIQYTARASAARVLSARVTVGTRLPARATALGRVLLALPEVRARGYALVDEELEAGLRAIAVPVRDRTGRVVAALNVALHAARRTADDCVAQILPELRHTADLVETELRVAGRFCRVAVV

[1] = biological target: T2, PobR (PobRFL) (Streptomyces coelicolor (cosmid StE8; M600 is the wild-type strain used)) (UniProt Q9Z4X2); assay: DNase I footprinting
T2 sequence: T1 sequence (Q9Z4X2 1-524)

[2] = biological target: T2, PobR (PobRFL) (Streptomyces coelicolor (cosmid StE8; M600 is the wild-type strain used)); assay: EMSA
[3] = biological target: PobR (product of SCO3209), full length, Streptomyces coelicolor (Streptomyces coelicolor); assay: SEC
[4] = biological target: PobR (product of SCO3209), full length, Streptomyces coelicolor (Streptomyces coelicolor); assay: SAXS

## O=C(O)c1ccc(O)cc1 [PHB, para-hydroxybenzoate]
PobR
  Kd: 5.8 ± 0.5 µM

## GCATCGGTCGTTCCCTTCGATCGGCGTCGTTGCCTTGCTCGAGCCGGCAGTTGTTCGCGTCGCGTTGTCGCGTTGTCGCCTGTTCGCGTGGTGAAAATTTCTTCACCATCAACTGCGC (double strand) [118-bp pobA promoter probe, 5'-32P]
[1]
  binding: binds

## GCATCGGTCGTTCCCTTCGATCGGCGTCGTTGCCTTGCTCGAGCCGGCAGTTGTTCGCGTCGCGTTGTCGCGTTGTCGCCTGTTCGCGTGGTGAAAATTTCTTCACCATCAACTGCGC (double strand) [118-bp pobA promoter probe]
[2]
  binding: binds

## PobR (product of SCO3209), full length, Streptomyces coelicolor (natural protein)
[3]
  stoichiometry N: 2
[4]
  stoichiometry N: 2

From paper PMC5814911 (Nucleic Acids Research, 2017)
